Assay results reported in publication PMC5479800, “Thioesterase YbgC affects motility by modulating c-di-GMP levels in Shewanella oneidensis” (Scientific Reports, 2017).

Key:
Test in all cases: purified protein
Format in all cases: biochemical, Shewanella oneidensis
Details in all cases: 25 °C, 200 mM sodium phosphate, pH 7.5 in table title, pH 7.0 in methods
purified protein [1] = substrate: CC(=O)SCCNC(=O)CCNC(=O)[C@H](O)C(C)(C)COP(=O)(O)OP(=O)(O)OC[C@H]1O[C@@H](n2cnc3c(N)ncnc32)[C@H](O)[C@@H]1OP(=O)(O)O
purified protein [2] = substrate: CCC(=O)SCCNC(=O)CCNC(=O)[C@H](O)C(C)(C)COP(=O)(O)OP(=O)(O)OC[C@H]1O[C@@H](n2cnc3c(N)ncnc32)[C@H](O)[C@@H]1OP(=O)(O)O
purified protein [3] = substrate: CCCC(=O)SCCNC(=O)CCNC(=O)[C@H](O)C(C)(C)COP(=O)(O)OP(=O)(O)OC[C@H]1O[C@@H](n2cnc3c(N)ncnc32)[C@H](O)[C@@H]1OP(=O)(O)O
purified protein [4] = substrate: CCCCCCCC(=O)SCCNC(=O)CCNC(=O)[C@H](O)C(C)(C)COP(=O)(O)OP(=O)(O)OC[C@H]1O[C@@H](n2cnc3c(N)ncnc32)[C@H](O)[C@@H]1OP(=O)(O)O

Protein	Km (purified protein [1])	kcat (purified protein [1])	kcat/Km (purified protein [1])	Km (purified protein [2])	kcat (purified protein [2])	kcat/Km (purified protein [2])	Km (purified protein [3])	kcat (purified protein [3])	kcat/Km (purified protein [3])	Km (purified protein [4])	kcat (purified protein [4])	kcat/Km (purified protein [4])
SoYbgC (S. oneidensis YbgC) (Shewanella oneidensis MR-1) (protein) MTFNWPISVYYEDTDAGGVVYHSNYLNFFERARTEWLKALGVSQTALLADDTAFVVKRAELDFKKAARFEQNLIVETKVIELKKASLVFHQRLVDHLGDCYCEGTVLVACVALSRMRPRAIPLNIVQEFDSAS	3.5 ± 0.4 µM	8 ± 0.7 s⁻¹	2.3e+06 M⁻¹ s⁻¹	4.8 ± 0.6 µM	3.9 ± 5 s⁻¹	810000 M⁻¹ s⁻¹	17 ± 2 µM	1.3 ± 0.1 s⁻¹	76000 M⁻¹ s⁻¹	34 ± 4 µM	0.15 ± 0.01 s⁻¹	4400 M⁻¹ s⁻¹
SoYbgC (S. oneidensis YbgC) (Shewanella oneidensis MR-1; D15N) (protein) MTFNWPISVYYEDTNAGGVVYHSNYLNFFERARTEWLKALGVSQTALLADDTAFVVKRAELDFKKAARFEQNLIVETKVIELKKASLVFHQRLVDHLGDCYCEGTVLVACVALSRMRPRAIPLNIVQEFDSAS	231 ± 37 µM											
